Laboratory results: publication PMC7494997 (Scientific Reports, 2020)

What was measured:
yeast-displayed hVISTA [1] = target: T1, yeast-displayed hVISTA (human); test: flow cytometry on cells; hVISTA (Phe33-Ala194) displayed on yeast, titrations of soluble antibody in PBS/BSA pH 7.4, 4 °C, 12 h; conditions: one partner purified
T1 construct: also called wild-type hVISTA; WT VISTA

yeast-displayed hVISTA [2] = target: T1, yeast-displayed hVISTA; test: flow cytometry on cells; hVISTA (Phe33-Ala194) displayed on yeast, titrations of soluble antibody in PBS/BSA pH 6.0, 4 °C, 12 h; conditions: one partner purified

T1 sequence (chain, as listed by the source): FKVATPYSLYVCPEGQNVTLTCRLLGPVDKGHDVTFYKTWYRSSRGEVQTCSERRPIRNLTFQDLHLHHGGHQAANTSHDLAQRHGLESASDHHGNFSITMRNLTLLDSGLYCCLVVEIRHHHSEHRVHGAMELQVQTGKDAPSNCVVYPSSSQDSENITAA

Row | Kd (yeast-displayed hVISTA [1]) [nM] | Kd (yeast-displayed hVISTA [2]) [nM] | Binder
1 | ~3 | – | VSTB112 (antibody, V domains shown, human IgG1 heavy chain; human kappa light chain; full human IgG1; also called CI-8993 (Janssen/ImmuNext, Curis); source: Expi293 cells, purified (protein A)) VH: QVQLVQSGAEVKKPGSSVKVSCKASGGTFSSYAISWVRQAPGQGLEWMGGIIPIFGTANYAQKFQGRVTITADESTSTAYMELSSLRSEDTAVYYCARSSYGWSYEFDYWGQGTLVTVSS VL: DIQMTQSPSSLSASVGDRVTITCRASQSIDTRLNWYQQKPGKAPKLLIYSASSLQSGVPSRFSGSGSGTDFTLTISSLQPEDFATYYCQQSAYNPITFGQGTKVEIK
2 | – | ~3 | BMS767 (antibody, V domains shown, human IgG1 heavy chain; human kappa light chain; full human IgG1; also called BMS (Bristol Myers Squibb); source: Expi293 cells, purified (protein A)) VH: EVQLVESGGGLVQPGKSLRLSCAASGFTLEDYAMHWVRQAPGKGLEWVSGIDWNSENIGYADSVKGRFTISRDNAKNSLYLQMNSLRTEDTALYYCAKVPGYSGGWIDAEDDWGQGTMVTVSS VL: not shown
